B1: MazF-mt3 (tag-removed form used for crystallization) (enzyme)
chain: GPELMVISRAEIYWADLGPPSGSQPAKRRPVLVIQSDPYNASRLATVIAAVITSNTALAAMPGNVFLPATTTRLPRDSVVNVTAIVTLNKTDLTDRVGEVPASLMHEVDRGLRRVLDL

Columns and labels:
crystal structure = biological target: the molecule itself; test: crystal structure
[1] = biological target: B1; test: crystal structure; conditions: both partners purified

Binder: B1
- stoichiometry N (crystal structure): 2 subunits in the oligomer

Binder: LTGQIDRALESIHGTDEAEALAVANAYRVLETMDDEW [MazE-mt3 (Leu46-Trp82) peptide]
- stoichiometry N [1]: 2 toxin chains per antitoxin chain

From PMC11394972 (International Journal of Molecular Sciences, 2024)
